Experimental data published in patent US20240279318A1 (NANJING LEGEND BIOTECH, published 2024).

How the values were obtained:
[1] = target: T1, AFP158/HLA-A*02:01 complex (human); test: SPR, scFv captured, pMHC in flow;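 also: complex injected at several concentrations over crude scFv, association then running-buffer dissociation, KD estimated from kinetic on- and off-rate constants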
T1 construct: flowed over the chip in SPR; also called AFP158 pro

[2] = target: T1, AFP158/HLA-A*02:01 complex; test: SPR, KD ratio to AS170036 VL1VH1;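 also: crude scFv captured on a sensor chip, peptide–HLA complex passed over at several concentrations, association then buffer dissociation, KD derived from on- and off-rates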
Experimental: The experiment was carried out as follows. The crude scFv protein were captured onto the sensorchip. Different concentrations (320, 160, 40 nM) of AFP158/HLA-A*02:01 complex flowed over the sensorchip surface, and were allowed to bind the antibody fragment for 100 s followed by injection of the running buffer to allow dissociation of the complex. On-rate (kd) and off-rate (kd) were calculated based on association and dissociation curve, and were used to estimate the equilibrium dissociation constant (KD).

Binder	Kd [1]	Affinity increase [2]
HG108D (scFv, AS170036 VL1VH1 scFv mutein; also called AS170036 VL1VH1-VHG108D) scFv: QSALTQPRSVSGSPGQSVTISCAGTSSDVGSENYVSWYQQHPGKAPKLMIYQVNKRASGVPDRFSGSKSGNTASLTISGLQAEDEADYYCASYRSSDHNIVFGGGTKLTVLGGGGSGGGGSGGGGSEVQLVESGGGLVQPGGSLRLSCAASGFTFSSYAMSWVRQAPGKGLEWVSTINSGTGSPYYADSVKGRFTISRDNSKNTLYLQMNSLRAEDTAVYYCAKNFFDGSWFLDPPAMDYWGQGTLVTVSSHHHHHH	42 nM	5.5 fold
HL107M (scFv, AS170036 VL1VH1 scFv mutein) scFv: QSALTQPRSVSGSPGQSVTISCAGTSSDVGSENYVSWYQQHPGKAPKLMIYQVNKRASGVPDRFSGSKSGNTASLTISGLQAEDEADYYCASYRSSDHNIVFGGGTKLTVLGGGGSGGGGSGGGGSEVQLVESGGGLVQPGGSLRLSCAASGFTFSSYAMSWVRQAPGKGLEWVSTINSGTGSPYYADSVKGRFTISRDNSKNTLYLQMNSLRAEDTAVYYCAKNFFDGSWFMGPPAMDYWGQGTLVTVSSHHHHHH	370 nM	0.7 fold
HG108V (scFv, AS170036 VL1VH1 scFv mutein) scFv: QSALTQPRSVSGSPGQSVTISCAGTSSDVGSENYVSWYQQHPGKAPKLMIYQVNKRASGVPDRFSGSKSGNTASLTISGLQAEDEADYYCASYRSSDHNIVFGGGTKLTVLGGGGSGGGGSGGGGSEVQLVESGGGLVQPGGSLRLSCAASGFTFSSYAMSWVRQAPGKGLEWVSTINSGTGSPYYADSVKGRFTISRDNSKNTLYLQMNSLRAEDTAVYYCAKNFFDGSWFLVPPAMDYWGQGTLVTVSSHHHHHH	370 nM	0.7 fold
HP58G (scFv, AS170036 VL1VH1 scFv mutein) scFv: QSALTQPRSVSGSPGQSVTISCAGTSSDVGSENYVSWYQQHPGKAPKLMIYQVNKRASGVPDRFSGSKSGNTASLTISGLQAEDEADYYCASYRSSDHNIVFGGGTKLTVLGGGGSGGGGSGGGGSEVQLVESGGGLVQPGGSLRLSCAASGFTFSSYAMSWVRQAPGKGLEWVSTINSGTGSGYYADSVKGRFTISRDNSKNTLYLQMNSLRAEDTAVYYCAKNFFDGSWFLGPPAMDYWGQGTLVTVSSHHHHHH	320 nM	0.9 fold
HG108E (scFv, AS170036 VL1VH1 scFv mutein; also called AS170036 VL1VH1-VHG108E) scFv: QSALTQPRSVSGSPGQSVTISCAGTSSDVGSENYVSWYQQHPGKAPKLMIYQVNKRASGVPDRFSGSKSGNTASLTISGLQAEDEADYYCASYRSSDHNIVFGGGTKLTVLGGGGSGGGGSGGGGSEVQLVESGGGLVQPGGSLRLSCAASGFTFSSYAMSWVRQAPGKGLEWVSTINSGTGSPYYADSVKGRFTISRDNSKNTLYLQMNSLRAEDTAVYYCAKNFFDGSWFLEPPAMDYWGQGTLVTVSSHHHHHH	56 nM	4.1 fold
HL107N (scFv, AS170036 VL1VH1 scFv mutein) scFv: QSALTQPRSVSGSPGQSVTISCAGTSSDVGSENYVSWYQQHPGKAPKLMIYQVNKRASGVPDRFSGSKSGNTASLTISGLQAEDEADYYCASYRSSDHNIVFGGGTKLTVLGGGGSGGGGSGGGGSEVQLVESGGGLVQPGGSLRLSCAASGFTFSSYAMSWVRQAPGKGLEWVSTINSGTGSPYYADSVKGRFTISRDNSKNTLYLQMNSLRAEDTAVYYCAKNFFDGSWFNGPPAMDYWGQGTLVTVSSHHHHHH	530 nM	0.5 fold
HG108T (scFv, AS170036 VL1VH1 scFv mutein) scFv: QSALTQPRSVSGSPGQSVTISCAGTSSDVGSENYVSWYQQHPGKAPKLMIYQVNKRASGVPDRFSGSKSGNTASLTISGLQAEDEADYYCASYRSSDHNIVFGGGTKLTVLGGGGSGGGGSGGGGSEVQLVESGGGLVQPGGSLRLSCAASGFTFSSYAMSWVRQAPGKGLEWVSTINSGTGSPYYADSVKGRFTISRDNSKNTLYLQMNSLRAEDTAVYYCAKNFFDGSWFLTPPAMDYWGQGTLVTVSSHHHHHH	530 nM	0.5 fold
HP58Q (scFv, AS170036 VL1VH1 scFv mutein) scFv: QSALTQPRSVSGSPGQSVTISCAGTSSDVGSENYVSWYQQHPGKAPKLMIYQVNKRASGVPDRFSGSKSGNTASLTISGLQAEDEADYYCASYRSSDHNIVFGGGTKLTVLGGGGSGGGGSGGGGSEVQLVESGGGLVQPGGSLRLSCAASGFTFSSYAMSWVRQAPGKGLEWVSTINSGTGSQYYADSVKGRFTISRDNSKNTLYLQMNSLRAEDTAVYYCAKNFFDGSWFLGPPAMDYWGQGTLVTVSSHHHHHH	500 nM	0.5 fold
HP58E (scFv, AS170036 VL1VH1 scFv mutein) scFv: QSALTQPRSVSGSPGQSVTISCAGTSSDVGSENYVSWYQQHPGKAPKLMIYQVNKRASGVPDRFSGSKSGNTASLTISGLQAEDEADYYCASYRSSDHNIVFGGGTKLTVLGGGGSGGGGSGGGGSEVQLVESGGGLVQPGGSLRLSCAASGFTFSSYAMSWVRQAPGKGLEWVSTINSGTGSEYYADSVKGRFTISRDNSKNTLYLQMNSLRAEDTAVYYCAKNFFDGSWFLGPPAMDYWGQGTLVTVSSHHHHHH	600 nM	0.5 fold
HG108M (scFv, AS170036 VL1VH1 scFv mutein; also called AS170036 VL1VH1-VHG108M) scFv: QSALTQPRSVSGSPGQSVTISCAGTSSDVGSENYVSWYQQHPGKAPKLMIYQVNKRASGVPDRFSGSKSGNTASLTISGLQAEDEADYYCASYRSSDHNIVFGGGTKLTVLGGGGSGGGGSGGGGSEVQLVESGGGLVQPGGSLRLSCAASGFTFSSYAMSWVRQAPGKGLEWVSTINSGTGSPYYADSVKGRFTISRDNSKNTLYLQMNSLRAEDTAVYYCAKNFFDGSWFLMPPAMDYWGQGTLVTVSSHHHHHH	58 nM	4.7 fold
HG108N (scFv, AS170036 VL1VH1 scFv mutein; also called AS170036 VL1VH1-VHG108N) scFv: QSALTQPRSVSGSPGQSVTISCAGTSSDVGSENYVSWYQQHPGKAPKLMIYQVNKRASGVPDRFSGSKSGNTASLTISGLQAEDEADYYCASYRSSDHNIVFGGGTKLTVLGGGGSGGGGSGGGGSEVQLVESGGGLVQPGGSLRLSCAASGFTFSSYAMSWVRQAPGKGLEWVSTINSGTGSPYYADSVKGRFTISRDNSKNTLYLQMNSLRAEDTAVYYCAKNFFDGSWFLNPPAMDYWGQGTLVTVSSHHHHHH	140 nM	2 fold
HP110E (scFv, AS170036 VL1VH1 scFv mutein) scFv: QSALTQPRSVSGSPGQSVTISCAGTSSDVGSENYVSWYQQHPGKAPKLMIYQVNKRASGVPDRFSGSKSGNTASLTISGLQAEDEADYYCASYRSSDHNIVFGGGTKLTVLGGGGSGGGGSGGGGSEVQLVESGGGLVQPGGSLRLSCAASGFTFSSYAMSWVRQAPGKGLEWVSTINSGTGSPYYADSVKGRFTISRDNSKNTLYLQMNSLRAEDTAVYYCAKNFFDGSWFLGPEAMDYWGQGTLVTVSSHHHHHH	150 nM	1.8 fold
HP110D (scFv, AS170036 VL1VH1 scFv mutein) scFv: QSALTQPRSVSGSPGQSVTISCAGTSSDVGSENYVSWYQQHPGKAPKLMIYQVNKRASGVPDRFSGSKSGNTASLTISGLQAEDEADYYCASYRSSDHNIVFGGGTKLTVLGGGGSGGGGSGGGGSEVQLVESGGGLVQPGGSLRLSCAASGFTFSSYAMSWVRQAPGKGLEWVSTINSGTGSPYYADSVKGRFTISRDNSKNTLYLQMNSLRAEDTAVYYCAKNFFDGSWFLGPDAMDYWGQGTLVTVSSHHHHHH	540 nM	0.5 fold
HP110A (scFv, AS170036 VL1VH1 scFv mutein) scFv: QSALTQPRSVSGSPGQSVTISCAGTSSDVGSENYVSWYQQHPGKAPKLMIYQVNKRASGVPDRFSGSKSGNTASLTISGLQAEDEADYYCASYRSSDHNIVFGGGTKLTVLGGGGSGGGGSGGGGSEVQLVESGGGLVQPGGSLRLSCAASGFTFSSYAMSWVRQAPGKGLEWVSTINSGTGSPYYADSVKGRFTISRDNSKNTLYLQMNSLRAEDTAVYYCAKNFFDGSWFLGPAAMDYWGQGTLVTVSSHHHHHH	210 nM	1.3 fold
HP58A (scFv, AS170036 VL1VH1 scFv mutein) scFv: QSALTQPRSVSGSPGQSVTISCAGTSSDVGSENYVSWYQQHPGKAPKLMIYQVNKRASGVPDRFSGSKSGNTASLTISGLQAEDEADYYCASYRSSDHNIVFGGGTKLTVLGGGGSGGGGSGGGGSEVQLVESGGGLVQPGGSLRLSCAASGFTFSSYAMSWVRQAPGKGLEWVSTINSGTGSAYYADSVKGRFTISRDNSKNTLYLQMNSLRAEDTAVYYCAKNFFDGSWFLGPPAMDYWGQGTLVTVSSHHHHHH	380 nM	0.7 fold
HG108S (scFv, AS170036 VL1VH1 scFv mutein; also called AS170036 VL1VH1-VHG108S) scFv: QSALTQPRSVSGSPGQSVTISCAGTSSDVGSENYVSWYQQHPGKAPKLMIYQVNKRASGVPDRFSGSKSGNTASLTISGLQAEDEADYYCASYRSSDHNIVFGGGTKLTVLGGGGSGGGGSGGGGSEVQLVESGGGLVQPGGSLRLSCAASGFTFSSYAMSWVRQAPGKGLEWVSTINSGTGSPYYADSVKGRFTISRDNSKNTLYLQMNSLRAEDTAVYYCAKNFFDGSWFLSPPAMDYWGQGTLVTVSSHHHHHH	96 nM	2.8 fold
HG108L (scFv, AS170036 VL1VH1 scFv mutein) scFv: QSALTQPRSVSGSPGQSVTISCAGTSSDVGSENYVSWYQQHPGKAPKLMIYQVNKRASGVPDRFSGSKSGNTASLTISGLQAEDEADYYCASYRSSDHNIVFGGGTKLTVLGGGGSGGGGSGGGGSEVQLVESGGGLVQPGGSLRLSCAASGFTFSSYAMSWVRQAPGKGLEWVSTINSGTGSPYYADSVKGRFTISRDNSKNTLYLQMNSLRAEDTAVYYCAKNFFDGSWFLLPPAMDYWGQGTLVTVSSHHHHHH	200 nM	1.4 fold
HL107I (scFv, AS170036 VL1VH1 scFv mutein) scFv: QSALTQPRSVSGSPGQSVTISCAGTSSDVGSENYVSWYQQHPGKAPKLMIYQVNKRASGVPDRFSGSKSGNTASLTISGLQAEDEADYYCASYRSSDHNIVFGGGTKLTVLGGGGSGGGGSGGGGSEVQLVESGGGLVQPGGSLRLSCAASGFTFSSYAMSWVRQAPGKGLEWVSTINSGTGSPYYADSVKGRFTISRDNSKNTLYLQMNSLRAEDTAVYYCAKNFFDGSWFIGPPAMDYWGQGTLVTVSSHHHHHH	240 nM	1.1 fold
HG108Q (scFv, AS170036 VL1VH1 scFv mutein) scFv: QSALTQPRSVSGSPGQSVTISCAGTSSDVGSENYVSWYQQHPGKAPKLMIYQVNKRASGVPDRFSGSKSGNTASLTISGLQAEDEADYYCASYRSSDHNIVFGGGTKLTVLGGGGSGGGGSGGGGSEVQLVESGGGLVQPGGSLRLSCAASGFTFSSYAMSWVRQAPGKGLEWVSTINSGTGSPYYADSVKGRFTISRDNSKNTLYLQMNSLRAEDTAVYYCAKNFFDGSWFLQPPAMDYWGQGTLVTVSSHHHHHH	200 nM	1.4 fold
